B1: agouti protein: gene product expressed in mice, involved in coat color and obesity when ectopically expressed; antagonizes melanocortin receptors (protein)
chain: HLALEETLGDDRSLRSNSSMNSLDFSSVSIVALNKKSKKISRKEAEKRKRSSKKKASMKKVARPPPPSPCVATRDSCKPPAPACCDPCASCQCRFFGSACTCRVLNPNC

Legend:
hMC1-r [1] = molecular target: T1, hMC1-r (Homo sapiens, UniProt Q01726); experiment: Scatchard Analysis on MC1-r transfected COS7 cells with AP-Ag; format: binding; details: culture supernatant containing up to 30 nM AP-Ag, estimated
T1 construct: expressed in transfected cells; host or cells: COS-7 cells, transient (DEAE-Dextran)
T1 sequence (Q01726 whole entry): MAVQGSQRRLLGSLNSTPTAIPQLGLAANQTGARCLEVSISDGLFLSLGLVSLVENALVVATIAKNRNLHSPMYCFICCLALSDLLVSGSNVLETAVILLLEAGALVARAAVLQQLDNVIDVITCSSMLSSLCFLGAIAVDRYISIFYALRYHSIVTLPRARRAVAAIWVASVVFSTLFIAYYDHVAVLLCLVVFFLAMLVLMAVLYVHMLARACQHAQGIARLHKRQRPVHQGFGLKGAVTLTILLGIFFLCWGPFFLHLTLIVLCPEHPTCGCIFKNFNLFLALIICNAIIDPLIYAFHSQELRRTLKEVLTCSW
Protocol: (§1) COS-7 cells were transfected with hMC1-r or hMC4-r by the DEAE-Dextran method. A plasmid containing the Adenovirus VA1 and VA2 RNA genes was used to co-transfect the COS cells to enhance transient protein expression by increasing translational initiation. The MC4-r and the VA½ cDNA plasmids were used at a ratio of 10 to 1. Control plates received the VA½ plasmid alone. 48 hours post-transfection, the cells were rinsed and culture supernatant containing 15 nm of AP-Ag was added. AP-Ag is a truncated agouti protein, containing the cysteine-rich domain tagged with the alkaline phosphatase at its N-terminal. Binding of AP-Ag to transfected cells proceeded at room temperature for 90 minutes with gentle rocking. The cells were then washed 7 times before fixing and color development using NBT/BCIP substrate.
To assess the affinity of the agouti protein for the MC1-R receptor, a Scatchard Analysis was performed on MC1-r transfected COS7 cells using culture supernatant containing up to 30 nM AP-Ag. The Kd has been estimated at 20-30 nM range.

[2] = molecular target: T2, Human melanocortin receptor 4 (hMC4-r) (Homo sapiens, UniProt P32245); experiment: Intracellular cAMP level in 293/MC4-R stable clones with agouti protein; format: cell-based; details: 5 nM agouti protein; 293/MC4-R line relative to the parental 293 cell line
T2 construct: expressed in transfected cells
T2 sequence (P32245 whole entry): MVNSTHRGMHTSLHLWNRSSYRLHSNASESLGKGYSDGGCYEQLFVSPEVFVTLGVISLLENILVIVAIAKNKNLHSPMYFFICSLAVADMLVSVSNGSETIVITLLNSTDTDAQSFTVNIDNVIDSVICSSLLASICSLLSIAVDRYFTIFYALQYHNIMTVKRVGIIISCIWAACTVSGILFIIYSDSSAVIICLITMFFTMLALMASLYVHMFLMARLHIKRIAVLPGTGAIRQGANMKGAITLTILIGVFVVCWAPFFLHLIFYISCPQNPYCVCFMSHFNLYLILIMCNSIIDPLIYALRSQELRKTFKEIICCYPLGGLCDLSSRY
Protocol: Human melanocortin receptor 4 (hMC4-r) cDNA, under the control of the CMV promoter, was transfected into the 293 cell line, and stable clones were selected (293/MC4-R). The stable clones were tested for reduction in intracellular cAMP levels in the presence of 5 nM agouti protein.
When 5 nM agouti protein was added to the 293/MC4-R line, an 18% reduction of intracellular cAMP level, relative to the parental 293 cell line, was observed.

hMC1-r [3] = molecular target: T1, hMC1-r; experiment: Direct binding of AP-Ag to hMC1-r transfected COS-7 cells (AP staining); details: 15 nm AP-Ag, room temperature, 90 minutes; transfection efficiency typically 12-16%
Protocol: as §1
(§2) N-terminal truncated agouti protein, containing only the cysteine-rich C-terminal domain, retains the antagonizing activity of the full-length agouti. […]
(§3) The transfection efficiency, as monitored by β-galactosidase reporter plasmid, typically was 12-16%. 10-13% of the MC1-r transfected and 3-4% of the MC4-r transfected COS7 cells bound the agouti protein as determined by AP staining. […]

hMC4-r = molecular target: T3, hMC4-r (Homo sapiens, UniProt P32245); experiment: Direct binding of AP-Ag to hMC4-r transfected COS-7 cells (AP staining); details: 15 nm AP-Ag, room temperature, 90 minutes; transfection efficiency typically 12-16%
T3 construct: expressed in transfected cells; host or cells: COS-7 cells, transient (DEAE-Dextran), co-transfected with Adenovirus VA1/VA2 RNA plasmid
T3 sequence (P32245 whole entry): as above
Protocol: as §1, §2, §3

Molecule	Kd (hMC1-r [1])	reduction of intracellular cAMP level [2]	MC1-r transfected COS7 cells that bound the agouti protein as determined by AP staining (hMC1-r [3])	MC4-r transfected COS7 cells that bound the agouti protein as determined by AP staining (hMC4-r)
AP-Ag: truncated agouti protein, containing the cysteine-rich domain tagged with the alkaline phosphatase at its N-terminal	20 to 30 nM	–	–	–
B1	–	18%	10-13%	3-4%

— patent publication US20080009438A9, “Screening methods for compounds useful in the regulation of body weight” (Millennium Pharmaceuticals, Inc., priority 1996, published 2008)
